Columns and labels:
Assay in all cases: pull-down; GST-Rab11 proteins immobilized on glutathione-Sepharose beads; lysates of cells expressing GFP-SPIN90 in buffer B (25 mM HEPES, 100 mM NaCl, 5 mM MgCl2, 1% NP-40, 10% glycerol); 2 h at 4 °C; immunoblot with anti-GFP
GST-Rab11 Q70L (human) = GST-Rab11 Q70L (human) (UniProt P62491)
GST-Rab11 S25N (human) = GST-Rab11 S25N (human) (UniProt P62491)
GST-Rab11 WT (human) = GST-Rab11 WT (human) (UniProt P62491)

GFP-SPIN90 C-term (C) (domain or fragment)
relative band intensity (normalized to GST-Rab11 WT with SPIN90 FL) (GST-Rab11 Q70L (human)): 1.43
relative band intensity (normalized to GST-Rab11 WT with SPIN90 FL) (GST-Rab11 S25N (human)): 2.89
relative band intensity (normalized to GST-Rab11 WT with SPIN90 FL) (GST-Rab11 WT (human)): 1.8

From publication PMC9504172
